Paper PMC9276969

Target: V5-tagged L. vannamei STAT (Litopenaeus vannamei)
Test: native gel or EMSA; S2 cells co-transfected with pAc5.1-STAT and pAc5.1-PTPN6 or pAc5.1-GFP (control); lysed in Pierce IP Lysis buffer at 48 h; 10% native PAGE, Western blot with antibody against shrimp STAT; dimer and monomer bands

V5-tagged L. vannamei STAT (natural protein)
stoichiometry N: 2
